Reference: patent publication US20160230173A1

T1: Glucocorticoid receptor (NR3C1) with the LLID motif mutated to AAAA by site-directed mutagenesis of Myc-DDK tagged NR3C1
T1 chain: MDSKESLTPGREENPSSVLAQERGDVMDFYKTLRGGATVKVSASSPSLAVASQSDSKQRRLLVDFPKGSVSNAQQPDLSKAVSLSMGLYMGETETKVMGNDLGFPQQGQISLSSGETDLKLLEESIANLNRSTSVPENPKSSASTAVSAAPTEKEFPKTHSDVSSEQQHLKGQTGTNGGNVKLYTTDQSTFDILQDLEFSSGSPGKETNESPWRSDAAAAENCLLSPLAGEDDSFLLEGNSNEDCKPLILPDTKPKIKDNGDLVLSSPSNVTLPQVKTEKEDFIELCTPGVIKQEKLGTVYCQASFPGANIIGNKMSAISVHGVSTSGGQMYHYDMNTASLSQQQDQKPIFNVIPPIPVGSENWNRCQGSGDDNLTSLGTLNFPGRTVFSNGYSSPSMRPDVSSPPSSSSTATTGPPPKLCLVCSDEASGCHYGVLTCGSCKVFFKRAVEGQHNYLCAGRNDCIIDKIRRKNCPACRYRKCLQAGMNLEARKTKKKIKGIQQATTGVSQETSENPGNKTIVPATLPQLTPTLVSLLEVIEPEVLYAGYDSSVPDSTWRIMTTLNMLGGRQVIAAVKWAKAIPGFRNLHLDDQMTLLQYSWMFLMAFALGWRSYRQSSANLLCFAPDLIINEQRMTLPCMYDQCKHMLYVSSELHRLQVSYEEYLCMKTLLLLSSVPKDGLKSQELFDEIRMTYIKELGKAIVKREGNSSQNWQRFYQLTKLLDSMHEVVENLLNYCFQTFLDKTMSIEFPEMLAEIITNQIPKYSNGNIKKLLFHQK


What was measured:
[1] = target: Endogenous glucocorticoid receptor (90-kDa GR) of NALM-6 human leukemia cells (human) (UniProt P04150); assay: cell-based or functional assay
[2] = target: Doubly mutated GR (double mutagenized GR, both CASP1 cleavage sites LLID and IKQE replaced by alanines), expressed from pLX304 lentivirus (human) (UniProt P04150); assay: cell-based or functional assay
[3] = target: T1, Glucocorticoid receptor (NR3C1) with …

Molecule	GR protein level in CASP1-overexpressing Nalm6 cells 24 hours after activation of CASP1 (western blot) [1]	level of 90-kDa GR after activation of CASP1 (LPS/ATP) in shNT CASP1-overexpressing NALM-6 cells (western blot, normalized for HSP90) [1]	fold decrease in prednisolone LC50 (MTT assay) in CASP1-overexpressing NALM-6 cells expressing GR without CASP1 cleavage sites [2]	cleavage of mutated GR in CASP1 enzymatic assay (western blot) [3]
Full-length CASP1 (Origene catalog # RC218364; GenBank Accession No. NM_033292) overexpressed in Nalm6 leukemia cells by lentivirus (from UniProt P29466 1-404) (enzyme)	35 % reduction	2 fold lower	9.4 fold	–
Recombinant human CASP1 (Enzo Life Sciences CASP1 assay kit for drug discovery, catalog number BML-AK701-0001) (protein) NPAMPTSSGSEGNVKLCSLEEAQRIWKQKSAEIYPIMDKSSRTRLALIICNEEFDSIPRRTGAEVDITGMTMLLQNLGYSVDVKKNLTASDMTTELEAFAHRPEHKTSDSTFLVFMSHGIREGICGKKHSEQVPDILQLNAIFNMLNTKNCPSLKDKPKVIIIQACRGDSPGVVWFKDSVGVSGNLSLPTTEEFEDDAIKKAHIEKDFIAFCSSTPDNVSWRHPTMGSVFIGRLIEHMQEYACSCDVEEIFRKVRFSFEQPDGRAQMPTTERVTLTRCFYLFPGH	–	–	–	Site-directed mutagenesis of the LLID motif (SEQ ID NO: 20) ablated cleavage of the glucocorticoid receptor at this location (FIG. 3B) and revealed a secondary CASP1 cleavage site in the GR
